Data from the nanobody polyreactivity screen of Harvey et al. (2022).

Assay: yeast display, Sf9 membrane polyspecificity reagent, FACS + sequencing; frameworks hold sequencing errors
How it was run: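 A nanobody's polyreactivity label depends on the gate it was sorted from. Yeast display cells were stained with 10% biotinylated, detergent-solubilized Sf9 membrane reagent for 1 hour at 4 °C, enriched on streptavidin microbeads and sorted by FACS. The low and high (top ~1%) gates were set on anti-HA fluorescence for expression and streptavidin fluorescence for reagent binding.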

Row | Sequence | polyreactivity (PSR sort gate)
1 | QVQLVESGGGLVQAGGSLRLSCAASGSISYEFAMGWYRQAPGKERELVASIDSDGAGTYYADSVKGRFTISRDNAKNTVYLQMNSLKPEDTAVYYGNAEWYYPYYYSRMDYWGQGTQVTVSS | low polyreactivity
2 | QVQLVESGGGLVQAGGSLRLSCAASGSISYEYAMGWYRPAPGKERELVASIDSDGAGTYYADSVKGRFTISRDNAKNTDYLQMNSLKPEDTAVYYCNAEWYYPYYYSRMDYWGQGTQVTVSS | low polyreactivity
3 | QVQLVESGGGLVQAGGSLRLSCAASGSISYFNDMGWYRQAPGKERELVAAIRDSGGITYADSVKGRFTISRDNAKYTVYLQMNSLKPEDTAVYYCATYGNEIYDYWGQGTQVTVSS | low polyreactivity
4 | QVQLVESGGGLVQAGGSLRLSCAASGSISYIYTMGWYRQAPGKERELVAAISGSGSTYYADSVKGRFTISRDNAKNTVYLQMNSLKPEDTAVHYCNAGSGGLNFQEVPQGYDYWGQGTQVTVSS | low polyreactivity
5 | QVQLVESGGGLVQAGGSLRLSCAASGSISYPNAMGWYRQAPGKERELVAAINSGDRTNYADSVKGRFTISRDNAKNTVYLQMNSLKPEDTAVYYCARRRYLLWGGYGYWGQGTQVTVSS | low polyreactivity
6 | QVQLVESGGGLVQAGGSLRLSCAASGSISYSNAMGWYRQAPGKERELVAAISWSTGRTYYADSVKGRFTISRDNAKNTVYLQMNSLKPEDTAVYYCATRLYPGGPYDYWGQGTQVTVSS | high polyreactivity
7 | QVQLVESGGGLVQAGGSLRLSCAASGSISYTYAMGWYRQAPGKERELVAAISYSEGITYYADSVKGRFTISRDNAKNTVYLQMNSLKPEDTAVYYCAVEGVYPYYDQSEYDYWGQGTQVTVSS | high polyreactivity
8 | QVQLVESGGGLVQAGGSLRLSCAASGSISYYYGKGWYRQAPGKERELVAAISTRGGSTYYADSVKGRFTISRDNAKNTVYLQMNSLKPEDTAVYYCNKVYYKRFYYWGQGTQVTVSS | high polyreactivity
9 | QVQLVESGGGLVQAGGSLRLSCAASGSIVEYYAMGWYRQAPGKERELVAAISTGGSTYYADSVKGRFTISRDNAKNTVYLQMNSLKPEDTAVYYCAAEDYHPGADTVGTGYDYWGQGTQVTVSS | low polyreactivity
10 | QVQLVESGGGLVQAGGSLRLSCAASGSIVNYNDMGCYRQAPGKERELVAAIDSSGTSTYYADSVKGRFTISRDNAKNTVYLQMNSLKPEDTAVYYCNADSSLGFGYWGQGTQVTVSS | low polyreactivity
11 | QVQLVESGGGLVQAGGSLRLSCAASGSIVTSYAIGWYRQAPGQERELVATITRRGGSTYYADSVKGRFTISRDNSKNTVYLQMNSLKPEDTAVSYCTARSSTIVYAGDYWGLGTQVTVSS | low polyreactivity
12 | QVQLVESGGGLVQAGGSLRLSCAASGSIVYPYAMGWNRQAPGKERELVAAITGHGGSTYYADSVKGRFTISRDNAKNTVYLQMNSMKPEDTAVYYCAAYRVVYSDAYYYWGQGTQVTVSS | low polyreactivity
13 | QVQLVESGGGLVQAGGSLRLSCAASGSIVYSYAMGWYRQAPGKERELVATISWSGGRTNYADSVKGRITISRDTAKNSVYLLMNSLKPVDTAVYYCAADIPPWGGDYWGQGTQVTVSS | low polyreactivity
14 | QVQLVESGGGLVQAGGSLRLSCAASGSIYDYNAMGWYRQAPGKERELVAAISASGGSTYYADSVKGRFTISRDNAKNTVYLQMNSLKPEDTAVYYCAAGYWSYWSLRMDYWGQGTQVTVSS | high polyreactivity
15 | QVQLVESGGGLVQAGGSLRLSCAASGSIYEINAMGWYRQAPGKERELVAAITGSGGSTHYADSVKGRFTISRDNAKNTVYLQMNSLKPEDTAVYYCAAVPRYQYGYWGQGTQVTVSS | low polyreactivity
16 | QVQLVESGGGLVQAGGSLRLSCAASGSIYGDYAMGWYRQAPGKERELVAAISWRGVRTYYADSVKGRFTISRDNAKNTVYLQMNSLNPEDTAVYYCDAEYYFVNRGAWYDYWGQGTQVTVSS | high polyreactivity

Row | Sequence | polyreactivity (PSR sort gate)
17 | QVQLVESGGGLVQAGGSLRLSCAASGSIYGYTMGWYRQAPGKERELVAAINRRADRTYYADSVKGRFTISRDNAKNTVYLQMNSLKPEDTAVYYCNKGGWYTLGYCGQGTQVTVSS | high polyreactivity
18 | QVQLVESGGGLVQAGGSLRLSCAASGSIYLWKAMGWYRQAPGKERELVAAIDSGGSTYAESVKGRFTISRDNAKNTVYLQMNSLKPEDTAVYYCAAEIPDEWPYDYWGQGTQVTVSS | low polyreactivity
19 | QVQLVESGGGLVQAGGSLRLSCAASGSIYPDYDMGWYRQAPGKERELVAAISSSGDSTYYADSVKGRFTISRDNAKNTVYLQMNSLKPEDTAVYYCAVDGTRSTSNGSEFTGYNYWGQGTHVTVSS | low polyreactivity
20 | QVQLVESGGGLVQAGGSLRLSCAASGSIYVWYDMGWYRQAPGKERELVDTISLSGVSTYYADSVKGRFTISRDNAKNTVYLQMNSLKPEDTAVYYCAADFVEQGEDDYWGQGTQVTVSS | low polyreactivity
21 | QVQLVESGGGLVQAGGSLRLSCAASGSIYYNAMGWYRQAPGKERELVAAISTSGGTTYYADSVKGRFTISRDNAKNTVYLQMNSLKPEDTAVYYCNALSVPDYDYWGQGTQVTVSS | high polyreactivity
22 | QVQLVESGGGLVQAGGSLRLSCAASGSIYYRYAMGWYRQAPGKERELVAAISKRGGSTYYADSVKGRFTISRDNAKITVYLQMNRLKPEDTAVYYCAAEVSSFLYTPSYSTDDYWGQGTQVTVSS | high polyreactivity
23 | QVQLVESGGGLVQAGGSLRLSCAASGSIYYWYASGWYIHAPGKERELVAAITSGGSTNYADSVKGRFTISRDNAKNTVYLQMNSLKPEDTAVYYCAASSVLTNHDYWGQGTQVTVSS | low polyreactivity
24 | QVQLVESGGGLVQAGGSLRLSCAASGSLFGRYAMGWYRQAPGTEREFVAAISRGATNTYYADSVKGRFTISRDNAKNTVYLQMNSLKPEDTAVYYCARTQRYDYGYDYWGQGTQVTVSS | low polyreactivity
25 | QVQLVESGGGLVQAGGSLRLSCAASGSLFRINAMGWYRQAPGKERELVAAITGRVGSTYYADTVKGRFTISRDNAQNTVYLQMNSLKPEDTAVYYCAARAGSSRYTREYRYDYWGQGTQVTVSS | high polyreactivity
26 | QVQLVESGGGLVQAGGSLRLSCAASGSLFTSYAMGWYRQAPGKERELVAAIRESGGRTYYADSVKGRFTISRDNAKNTVYLQMNSLKPEDTAVYYCAADSRVGFGRLYGYWGQGTQVTVSS | high polyreactivity
27 | QVQLVESGGGLVQAGGSLRLSCAASGSLFYSNTMGWYRQAPGKERELVAAISRGGSTYYADSVKGRFTISRDNAKNTVYLQMNSLKPEDTAVYYCAARYRWAPAYDYWGQGTQVTVSS | high polyreactivity
28 | QVQLVESGGGLVQAGGSLRLSCAASGSLIGQNAMGWYRQAPGKERELVATISRSGARTYYADSVKGRFTISRDIAKNTVYLQMNSLKPEDTAVYYCAARLLSVGVPMYSWGQGTQVTVSS | high polyreactivity
29 | QVQLVESGGGLVQAGGSLRLSCAASGSMFGYYAMGWYRQATGKERELVASIRRGSSTNYADSVKGRFTISRDNAKNTVYLQMNSLKPEDTAVYYCNAVLLSYDARGYSNLYDYWGQGPQVTVSS | low polyreactivity
30 | QVQLVESGGGLVQAGGSLRLSCAASGSMFSTYAMGWYRQAPGKERELVAASSRSGGSTYYADSVKGRFTISRDNAKNTVYLQMNSLKPEDTADYYCAKVARRQRYDYWGQGTQVTVSS | high polyreactivity
31 | QVQLVESGGGLVQAGGSLRLSCAASGSNFANYAMGWYIQAHGKERELVAAISWSGSSTYYADSVKGRFTISRYNAKNTVYLQMNSLKPEDTAVYYCAADYATPTWEYYYWGQGTQVTVSS | low polyreactivity
32 | QVQLVESGGGLVQAGGSLRLSCAASGSNFDPIVMGGYRKAPGKERELVAAIDVSGGSTYYADSVKGRFTISRDNAKNTVYLQMNSLKPEDTAVYYCAADAEGSASKYDYWGQGTQVTVSS | low polyreactivity
